For test [1], the target named is biotin-labeled RSV-IQN51 (Respiratory Syncytial Virus (F1 part)). The test is described as follows: time-resolved FRET competition, IQN51-APC/C39-Eu assay; competitor C39-Eu.
Test [2] deals with biotin-labeled RSV-IQN57 (Respiratory Syncytial Virus (F1 part)). The test is described as follows: time-resolved FRET competition, IQN57-APC/C45-Eu assay; competitor C45-Eu.

Consider HIV-T20 (peptide), for which the half-maximal inhibitory concentration (IC50) in test [1] and in test [2] was above 10 µM in each case.
As to HIV-C34 (peptide), the IC50 in test [1] and in test [2] was above 10 µM throughout.

What is called IC50 is the midpoint of a concentration-inhibition curve. A lower IC50 goes with higher potency.

The values above are taken from patent US20100035363A1.
